This passage reports stoichiometry N results from PMC4157418.

A word on the stoichiometry N: it is the number of molecules, sites or subunits per partner or assembly.

In the test the target is Acinetobacter baumannii alanine racemase (Acinetobacter baumannii strain NCTC13302) (UniProt B0VNF6). Briefly: crystal structure; sitting drops, 100 mM MES pH 6.0, 200 mM CaCl2, 20% PEG 6000; space group P2(1), two monomers in the asymmetric unit; 1.9 Å; interface analysed with PISA.

In turn, “Acinetobacter baumannii alanine racemase (from UniProt B0VNF6 1-367) (enzyme)” returned a stoichiometry N of 2.
